Data: patent publication US20250320277A1

Experiments:
[1] = molecular target: CHIKV p62-E1 (Chikungunya virus)
[2] = molecular target: CHIKV p62-E1 (Chikungunya virus); test: BLI, mAb on anti-human Fc sensor
[3] = molecular target: CHIKV p62-E1 (Chikungunya virus); test: BLI, […], global 1:1 fit; […]
[4] = molecular target: CHIKV p62-E1 (Chikungunya virus); test: ELISA, plate-coated p62-E1, eight-point mAb dilution
[5] = molecular target: MAYV p62-E1 (Mayaro virus (BeAr 20290)); test: as above

B1: DC2.M301 (antibody, V domains shown)
VH: QVQLVQSGAEVKKPGAAVKVSCKASGYTFSGYYIHWVRQAPGQGLEWMGWINPNSGGTDFAQKFQGRVTMTRDTSISTAYMELSRLRSDDTAVYLCSRDPGYTYGYPLGYWGQGTLVTVSS
VL: ETTLTQSPGTLSLSPGERATLSCRASQSVSSSYLAWYQQKPGQAPRLLIYGTSSRATGIPDRFSGRGSGTDFTLTISRLEPEDFAVYYCQQYGNSPPYTFGQGTKVDIK
- kon [1]: 260000 M⁻¹ s⁻¹
- fold higher binding affinity for CHIKV p62-E1 than MAYV p62-E1 [2]: 10 fold
- Kd [3]: 1.6 nM
- EC50 [4]: 0.88 nM

B2: DC2.M342 (antibody, V domains shown)
VH: QVQLVQSGAEVKKSGSSVTVSCKASGSTFISHAISWVRQAPGEGLEWMGRLIPVSGTPKYAHKFQGRLTITADDSTTTVYLTLRSLRFEDTAVYYCATWDADSTTLLYYFMDVWGKGTTVTVSS
VL: DIQVTQSPSTLSASVGDRVTITCRASQSISRWLAWYQQKPGKAPKLLIYKASSLESGVPSRFSGTGSGTEFTLTISSLQPDDFATYYCQQYNSYSTWTFGQGTKLEIK
- EC50 [4]: 35 nM
- EC50 [5]: 130 nM

B3: DC2.M17 (antibody, V domains shown)
VH: EVQLVESGSELKKPGASVRVSCEASGYSFTSHTIVWMRQAPGQGLECLGWINTNTGNPTYAQGFTGRFVFSLDTSVSTAYLQISSLKAADTAVYYCARVLKCLGGSASCSGHGYYDYGMAVWGQGTTVTVSS
VL: DIVLTQSPLSLPVTPGEPASISCRSSQSLLHSNGYNFLHWYLQKPGQSPQLLIYLGSIRASGVPDRFSGSGSGTDFTLKISRVEAEDVGVYYCMQALQTFMYTFGQGTKLEIK
- EC50 [4]: 0.9 nM

B4: DC2.M5 (antibody, V domains shown)
VH: EVQLVESGGGLVQPGGSLSLACEVSGFILSDHYIDWVRQAPGKGLEWVGRSRNKAKRYTTEYAASVKGRFTISRDDSNNSLYLLMKSLKTEDTAVYFCTRAGYYDKNGDSLDALDIWGQGTMVTVSS
VL: DIQVTQSPSSLSASVGDRVTITCRTSQTVSSNLNWYQQRPGKAPKLLISGISDLHSGVPSRFSGSGSGTDSTLTISSLQPEDSATYYCQQSYSLPRTFGQGTKVEIK
- EC50 [4]: 33 nM
- EC50 [5]: 39 nM

B5: DC2.M287 (antibody, V domains shown)
VH: EVQLVESGGGLVQPGGSLRLSCAASGFTFRDYWMIWVRQTPGKGLEWVANINRNGNEKHYVDSLKGRFTISRDNTKNSLYLQVNGLSAEDTAVYYCVRDSSPSFGPGNYYDAFDIWGQGTTVTVSS
VL: DIRVTQSPSSLSASVGDRVTITCRASQDIRNEVGWYQQKPGQAPKVLIFAASTLQSGVPSRFRGSGSGTVFTLTISSLQPEDLATYYCLQDFNYPRTFGQGTKVDIK
- EC50 [4]: 43 nM

B6: DC2.M336 (antibody, V domains shown)
VH: QVQLVQSGGRLVKPGGSLRLSCAASGFTIIDSYMSWIRQAPGKGLEWISYINPSGSVIYYSDSVKGRFISSRDNAKNSVYLQLSSLRAEDAAVYYCARGIYDQSDAFDLWGQGTTVTVSS
VL: DIVLTQSPSSLSASVGDRVTITCRASQGISNSLAWYQQRPGKAPKLLIYGASRLGSGVPSRFSGSGSGADYTLTISGLQPEDFATYYCQQYYITPPMTFGPGTKVDIK
- EC50 [4]: 0.9 nM
- EC50 [5]: 12.5 nM
